Like-named read-outs stand apart in the source and are kept apart here.
How the values were obtained:
Arf1-GAP / [D17]ARF1 = Arf1-GAP / [D17]ARF1 (Homo sapiens, UniProt P84077); experiment: GTP-GDP exchange activity of Arf1-GAP on [D17]ARF1, tryptophan fluorescence; type: biochemical; conditions: 30 uM TCTP, 0.5 uM [D17]ARF1-GDP, 100 uM Arf-GAP; presence vs absence of TCTP
Method: Into a buffer containing 1 mM free Mg^2+, 30 uM TCTP and 0.5 uM [D17]ARF1 -GDP were added. The reaction was initiated by the addition of 40 uM GTP and 2 mM EDTA. To stop the reaction, 2 mM MgCl2 was added. The Arf-GAP, at a concentration of 100 uM, was added. The reaction was measured in presence and absence of TCTP. […] In particular, it is shown that TCTP inhibits the GTP-GDP exchange catalyzed by Arf1-GAP, implicating that Arf1 is kept in its active conformation in presence of TCTP.

bovine brain tubulin = experiment: In vitro tubulin polymerization assay (absorbance at 340 nm); type: biochemical; conditions: 3 μg purified protein, 2 mg/ml tubulin, 32° C.
Method: In vitro tubulin polymerization assays. Pure bovine brain tubulin protein was reconstituted at a final concentration of 10 mg/ml in cold G-PEM buffer (80 mM Piperazine-N,N′-bis-[2-ethanesulfonic acid] equisodium salt (PIPES), 0.5 mM magnesium chloride (MgCl2), 1 mM ethylene glycol-bis-(b-amino-ethyl ether)-N,N,N′,N′-tetra-acetic acid (EGTA), 1 mM Guanosine 5′-triphosphate (GTP), pH 6.9). Samples of 2 mg/ml tubulin in G-PEM buffer were incubated either with 3 μg of ovalbumin (negative control), with 3 μg of purified recombinant TCTP protein, or with […] of purified recombinant OP18 protein. Then, the samples were placed in quartz cuvettes and incubated at 32° C. Tubulin polymerization was observed by measuring the absorbance of the solution at 340 nm over time.
Since TCTP exerts tubulin and microtubules binding properties (Gachet et al., J. Cell Sci., 1 12(Pt 8): 1257-1271 (1999)), whether TCTP could directly regulate the microtubule dynamics was investigated. An in vitro tubulin polymerization assay, using purified tubulin, was developed. […] In the presence of 3 μg of purified OP18 from E. Coil, the polymerization of tubulin was abolished.

eEF1A = target: T1, eEF1A (Oryctolagus cuniculus, UniProt P68105); experiment: Guanine nucleotide exchange assay on eEF1A (eEF1A-[3H]GDP dissociation); type: biochemical, rabbit
T1 construct: Rabbit liver eEF1A was purified as described in Shalak et al; from tissue; host or cells: rabbit liver
T1 sequence (P68105 1-462): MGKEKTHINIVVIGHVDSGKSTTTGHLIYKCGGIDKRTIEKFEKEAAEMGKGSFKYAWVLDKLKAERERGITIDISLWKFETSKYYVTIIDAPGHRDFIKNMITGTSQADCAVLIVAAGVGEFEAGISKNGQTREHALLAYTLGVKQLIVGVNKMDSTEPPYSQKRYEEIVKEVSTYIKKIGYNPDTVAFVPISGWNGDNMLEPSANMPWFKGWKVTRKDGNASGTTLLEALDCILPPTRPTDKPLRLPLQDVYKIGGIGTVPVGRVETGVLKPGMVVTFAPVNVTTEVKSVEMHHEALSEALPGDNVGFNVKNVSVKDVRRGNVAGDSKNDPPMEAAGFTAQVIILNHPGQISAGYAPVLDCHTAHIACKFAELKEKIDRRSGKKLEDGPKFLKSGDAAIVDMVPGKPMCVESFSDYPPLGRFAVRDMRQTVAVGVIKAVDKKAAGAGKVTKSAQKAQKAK
Method: (§1) Guanine nucleotide exchange assay. Rabbit liver eEF1A was purified as described in Shalak et al., Ukr Biokhim Zh, 69: 104-9 (1997), incorporated herein by reference. The guanine nucleotide exchange on eEF1A was monitored as described in Negrutskii et al., J Biol Chem, 274: 4545-50 (1999) and Bec et al., J Biol Chem, 269: 2086-92 (1994), both of which are incorporated herein by reference. The eEF1A-[^3H]GDP complex was prepared following incubation of 4 μM eEF1A with 4 μM [^3H]GDP (Amersham Biosciences; 1500 Ci/mol) in 80 μl of 45 mM Tris-HCl (pH 7.5) containing 0.5 mM DTT, 10 mM magnesium acetate, 100 mM NH4Cl, 1 mg/ml bovine serum albumin and 25% glycerol for 5 minutes at 37° C. The reaction mixture was placed on ice and diluted by addition of 640 μl of ice-cold exchange buffer [20 mM Tris-HCl (pH 7.5), 10 mM magnesium acetate, 50 mM NH4Cl, 10% glycerol]. The exchange reaction was conducted at 0° C. after addition of 160 μl of exchange buffer containing nucleotide and specified exchange factors. Aliquots of 100 μl were taken at times indicated and immediately filtered through nitrocellulose filters (Millipore; pore size 0.45 μm). Filters were washed 3 times with 1 ml of ice-cold washing buffer [20 mM Tris-HCl (pH 7.5), 10 mM magnesium acetate, 100 mM NH4Cl, 0.1 mg/ml bovine serum albumin], dried and counted in a liquid scintillator.
The functional relevance of a TCTP and eEF1A association was further investigated by monitoring the effects of TCTP on the rate of dissociation of GDP from the eEF1A-[^3H]-GDP complex. Whether TCTP preferentially binds to the GDP-bound form of the factor (and pushes the equilibrium toward the formation of eEF1A-GDP) or associates with the nucleotide free form of eEF1A (and displaces the exchange reaction toward the formation of eEF1A) was determined.
This corresponded to a rate of 0.082±0.004 pmol GDP exchanged/min/pmol of eEF1A. In the absence of free GDP in the incubation mixture, the eEF1A-[^3H]-GDP complex remained stable over a period of 40 minutes. Increasing amounts of TCTP (0.2 μM to 3.0 μM) were added in the exchange assay and the rate of dissociation of the eEF1A-[^3H]-GDP complex was monitored in the presence of 150 μM free GDP (FIG. 15A).

[1] = target: T2, eEF1A (eEF1Bαγ-mediated GDP exchange) (Oryctolagus cuniculus, UniProt P68105); experiment: eEF1Bαγ-mediated GDP exchange on eEF1A; type: biochemical, rabbit; conditions: TCTP at a final concentration of 2 μM
T2 construct: Rabbit liver eEF1A was purified as described in Shalak et al; from tissue; host or cells: rabbit liver (eEF1A only)
T2 sequence (P68105 2-462 limits assumed): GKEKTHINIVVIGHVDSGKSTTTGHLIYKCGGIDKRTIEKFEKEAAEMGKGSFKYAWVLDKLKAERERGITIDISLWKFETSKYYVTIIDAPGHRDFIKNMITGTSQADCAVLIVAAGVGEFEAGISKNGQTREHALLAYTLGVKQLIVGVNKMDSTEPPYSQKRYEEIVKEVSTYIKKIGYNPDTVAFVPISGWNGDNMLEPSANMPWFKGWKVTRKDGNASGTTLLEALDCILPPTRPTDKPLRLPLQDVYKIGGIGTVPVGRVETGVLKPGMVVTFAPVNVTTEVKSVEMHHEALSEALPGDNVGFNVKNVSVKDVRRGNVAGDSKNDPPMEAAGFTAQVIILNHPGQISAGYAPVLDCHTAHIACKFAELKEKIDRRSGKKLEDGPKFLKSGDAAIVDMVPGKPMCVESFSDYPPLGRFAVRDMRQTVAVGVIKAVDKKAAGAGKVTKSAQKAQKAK
Method: as §1, with “scintillator. […]” for “scintillator.”

[2] = target: T3, eEF1A (eEF1Bβ-mediated GDP exchange) (Oryctolagus cuniculus, UniProt P68105); experiment: eEF1Bβ-mediated GDP exchange on eEF1A; type: biochemical, rabbit; conditions: TCTP at a final concentration of 2 μM; simple first-order
T3 construct: Rabbit liver eEF1A was purified as described in Shalak et al; Full-length TCTP, eEF1Bβ and NKTR cDNAs were cloned in-frame into pGEX-6P; GST (N, cleaved yes); made in house; host or cells: eEF1Bβ: E. coli BL21DE3; eEF1A: purified from rabbit liver
T3 sequence (P68105 2-462 limits assumed): T2 sequence (P68105 2-462 limits assumed)
Method: as §1, with “scintillator. […]” for “scintillator.”

Arf1-GAP / [D17]ARF1, sequence (P84077 18-181 limits assumed): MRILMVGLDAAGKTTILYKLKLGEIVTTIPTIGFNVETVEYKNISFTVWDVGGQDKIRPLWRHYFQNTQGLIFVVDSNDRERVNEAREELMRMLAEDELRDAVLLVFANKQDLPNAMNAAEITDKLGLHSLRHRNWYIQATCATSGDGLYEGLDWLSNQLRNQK

Substance: TCTP: purified recombinant TCTP protein, bacterially expressed, GST moiety removed
- GTP-GDP exchange catalyzed by Arf1-GAP (Arf1-GAP / [D17]ARF1): inhibits
- polymerization of purified tubulin (bovine brain tubulin): did not appear to affect the polymerization rate
- guanine nucleotide exchange activity (eEF1A): devoid of exchange activity
- rate of GDP dissociation (eEF1A; 3 μM TCTP, 150 μM free GDP): 0.026±0.003 pmol GDP exchanged/min/pmol of eEF1A
- Kd (eEF1A; 150 μM free GDP, TCTP 0.2 μM to 3.0 μM, saturation kinetics, read-out: apparent dissociation constant Kd (inhibition of GDP exchange on eEF1A)): 1200 ± 200 nM
- binding of nucleotides by the protein itself (eEF1A; TCTP by itself): did not bind nucleotides
- Kd (eEF1A; unlabeled free GTP (150 μM) in the exchange reaction, read-out: apparent Kd of TCTP for the GDP form of eEF1A): 1600 ± 300 nM
- rate of GDP dissociation (eEF1A; with TCTP, unlabeled free GTP (150 μM) instead of GDP): 0.024±0.003 pmol GDP exchanged/min/pmol of eEF1A
- initial rate of GDP exchange in the presence of eEF1Bαγ [1]: 0.96 min⁻¹
- initial rate of GDP exchange in the presence of eEF1Bβ [2]: 0.294 min^−1 per pmol of eEF1Bβ
